Assay results reported in publication PMC4169746 (Molecular cell, 2014).
Residue numbers refer to the chain shown, from its start. Names and notes keep the numbering of the source.

How the values were obtained:
[1] = biological target: dephosphorylated IRAK4^FL (human) (UniProt Q9NWZ3); experiment: SEC-MALS
[2] = biological target: dephosphorylated IRAK4^KD (human) (UniProt Q9NWZ3); experiment: SEC-MALS
AUC = biological target: the molecule itself; experiment: AUC
SEC-MALS = biological target: the molecule itself; experiment: SEC-MALS

Question: With “dephosphorylated IRAK4^FL (from UniProt Q9NWZ3 1-460) (enzyme)” as the molecule, how does the stoichiometry N [1] read?
Answer: The stoichiometry N was 2.

Question: For “dephosphorylated IRAK4^KD (from UniProt Q9NWZ3 186-454) (domain or fragment)”, which stoichiometry N [2] is on record?
Answer: Its stoichiometry N is 2.

B1: IRAK4^FL-D311N (full-length IRAK4, catalytically inactive, unphosphorylated) (enzyme, human, UniProt Q9NWZ3 1-460, looked up)
chain: MNKPITPSTYVRCLNVGLIRKLSDFIDPQEGWKKLAVAIKKPSGDDRYNQFHIRRFEALLQTGKSPTSELLFDWGTTNCTVGDLVDLLIQNEFFAPASLLLPDAVPKTANTLPSKEAITVQQKQMPFCDKDRTLMTPVQNLEQSYMPPDSSSPENKSLEVSDTRFHSFSFYELKNVTNNFDERPISVGGNKMGEGGFGVVYKGYVNNTTVAVKKLAAMVDITTEELKQQFDQEIKVMAKCQHENLVELLGFSSDGDDLCLVYVYMPNGSLLDRLSCLDGTPPLSWHMRCKIAQGAANGINFLHENHHIHRNIKSANILLDEAFTAKISDFGLARASEKFAQTVMTSRIVGTTAYMAPEALRGEITPKSDIYSFGVVLLEIITGLPAVDEHREPQLLLDIKEEIEDEEKTIEDYIDKKMNDADSTSVEAMYSVASQCLHEKKNKRPDIKKVQQLLQEMTAS
Question: For B1, which Kd (AUC) is on record?
Answer: Its Kd is 2.5 ± 0.4 µM.

B2: IRAK4^KD-D311N (IRAK4 kinase domain, catalytically inactive, unphosphorylated) (domain or fragment, human, UniProt Q9NWZ3 164-460, looked up)
chain: RFHSFSFYELKNVTNNFDERPISVGGNKMGEGGFGVVYKGYVNNTTVAVKKLAAMVDITTEELKQQFDQEIKVMAKCQHENLVELLGFSSDGDDLCLVYVYMPNGSLLDRLSCLDGTPPLSWHMRCKIAQGAANGINFLHENHHIHRNIKSANILLDEAFTAKISDFGLARASEKFAQTVMTSRIVGTTAYMAPEALRGEITPKSDIYSFGVVLLEIITGLPAVDEHREPQLLLDIKEEIEDEEKTIEDYIDKKMNDADSTSVEAMYSVASQCLHEKKNKRPDIKKVQQLLQEMTAS
Question: Which “stoichiometry N” value (SEC-MALS) does the source give for B2 here?
Answer: The value was 2.

B3: IRAK4^KD-D311N Y262T (domain or fragment, human, UniProt Q9NWZ3 164-460, looked up)
chain: B2 chain with Y99T
Question: Does B3 bind (SEC-MALS)?
Answer: Result: binds
